A protein production outcome set (Wang et al. 2014)

Assay: label from the status in PepcDB records
For “MSLSMRDPVIPGTSMAYHPFLPHRAPDFAMSAVLGHQPPFFPALTLPPNGAAALSLPGALAKPIMDQLVGAAETGIPFSSLGPQAHLRPLKTMEPEEEVEDDPKVHLEAKELWDQFHKRGTEMVITKSGRRMFPPFKVRCSGLDKKAKYILLMDIIAADDCRYKFHNSRWMVAGKADPEMPKRMYIHPDSPATGEQWMSKVVTFHKLKLTNNISDKHGFTLAFPSDHATWQGNYSFGTQTILNSMHKYQPRFHIVRANDILKLPYSTFRTYLFPETEFIAVTAYQNDKITQLKIDNNPFAKGFRDTGNGRREKRKQLTLQSMRVFDERHKKENGTSDESSSEQAAFNCFAQASSPAASTVGTSNLKDLCPSEGESDAEAESKEEHGPEACDAAKISTTTSEEPCRDKGSPAVKAHLFAAERPRDSGRLDKASPDSRHSPATISSSTRGLGAEERRSPVREGTAPAKVEEARALPGKEAFAPLTVQTDAAAAHLAQGPLPGLGFAPGLAGQQFFNGHPLFLHPSQFAMGGAFSSMAAAGMGPLLATVSGASTGVSGLDSTAMASAAAAQGLSGASAATLPFHLQQHVLASQGLAMSPFGSLFPYPYTYMAAAAAASSAAASSSVHRHPFLNLNTMRPRLRYSPYSIPVPVPDGSSLLTTALPSMAAAAGPLDGKVAALAASPASVAVDSGSELNSRSSTLSSSSMSLSPKLCAEKEAATSELQSIQRLVSGLEAKPDRSRSASP”, the protein production was “failed”. For “MSLSNHSSDIEVGHSMNLTNHFLVAMPSMKDPYFKRSVIYICEHNQDGAMGLMINAPIDITVGGMLKQVDIEPAYPQSHQENLKKPVFNGGPVSEDRGFILHRPRDHYESSMKMTDDIAVTTSKDILTVLGTEAEPEGYIVALGYSGWSAGQLEVELTENSWLTIEADPELIFNTPVHEKWQKAIQKLGISPAQLSSDAGHEGGSHHHHHH”, the protein production was “not failed”. For “MSLSNKIFTHSLPMRYADFPTLVDALDYAALSSAGMNFYDRRCQLEDQLEYQTLKARAEAGAKRLLSLNLKKGDRVALIAETSSEFVEAFFACQYAGLVAVPLAIPMGVGQRDSWSAKLQGLLASCQPAAIITGDEWLPLVNAATHDNPELHVLSHAWFKALPEADVALQRPVPNDIAYLQYTSGSTRFPRGVIITHREVMANLRAISHDGIKLRPGDRCVSWLPFYHDMGLVGFLLTPVATQLSVDYLRTQDFAMRPLQWLKLISKNRGTVSVAPPFGYELCQRRVNEKDLAELDLSCWRVAGIGAEPISAEQLHQFAECFRQVNFDNKTFMPCYGLAENALAVSFSDEASGVVVNEVDRDILEYQGKAVAPGAETRAVSTFVNCGKALPEHGIEIRNEAGMPVAERVVGHICISGPSLMSGYFGDQVSQDEIAATGWLDTGDLGYLLDGYLYVTGRIKDLIIIRGRNIWPQDIEYIAEQEPEIHSGDAIAFVTAQEKIILQIQCRISDEERRGQLIHALAARIQSEFGVTAAIDLLPPHSIPRTSSGKPARAEAKKRYQKAYAASLNVQESLAEGHHHHHH”, the protein production was “not failed”. With “MSLSQDGLLGEVLSEGVLTLTLGRAPAHPLSRAMIAALHDALRRAMGDDHVHVLVIHGPGRIFCAGHDLKEIGRHRADPDEGRAFVTDLFEACSALMLDLAHCPKPTIALVEGIATAAGLQLMAACDLAYASPAARFCLPGVQNGGFCTTPAVAVSRVIGRRAVTEMALTGATYDADWALAAGLINRILPEAALATHVADLAGALAARNQAPLRRGLETLNRHLELPLEQAYALATPVMVEHFMDPGRRHLDWIDEGHHHHHH” the protein production was “not failed”. With “MSLSSGRTVPTRSHGLGKEGVSTTGASQVEFGDPELTARINDAMVQVEELLHTELSSGEDFLVDIVMHLTRAGGKRFRPMFALLASEFGEKPLSENVIKAAVVVEITHLATLYHDDVMDEASMRRGVPSANARWDNSVAILAGDILLAHASGLMSQLGTDTVAHFAETFGELVTGQMRETVGPRDTDPIEHYTNVIREKTGVLIASAGYLGAMHAGAAPEHIDALKNFGAAVGMIFQIVDDIIDIFSETHESGKTPGTDLREGVFTLPVLYALREDTPVGAELRDILTGPLEDDETVNHVLELLSQSGGRQAALDEVYRYMDIANAELDRLPDSTVKEALRNLATFTVKRVGEGHHHHHH” the protein production was “not failed”. For “MSLSSVKDFPKIKAIRSFIIGGVGSGGDYHNVKGGHWLIDSDISTPASKWEQYKKSRTSWGINVLGSFLVEIEATDGTVGFATGFGGPPACWLVHQHFERFLIGADPRNTNLLFEQMYRASMFYGRKGLPIAVISVIDLALWDLLGKVRNEPVYRLIGGATKERLDFYCTGPEPTAAKAMGFWGGKVPLPFCPDDGHEGLRKNVEFLRKHREAVGPDFPIMVDCYMSLNVSYTIELVKACLDLNINWWEECLSPDDTDGFALIKRAHPTVKFTTGEHEYSRYGFRKLVEGRNLDIIQPDVMWLGGLTELLKVAALAAAYDVPVVPHASGPYSYHFQISQPNTPFQEYLANSPDGKSVLPVFGDLFIDEPIPTKGYLTTADLDKPGFGLTINPAARAKLIPSDYLFKVPEIPQNLSTGKEIKSNEQPDKPNGTLDSLAAKVESLTTSTSSEGHHHHHH”, the protein production was “not failed”. With “MSLSTFNRIHLVVLDSVGIGAAPDANNFSNAGVPDGASDTLGHISKTVGLNVPNMAKIGLGNIPRDTPLKTVPAENHPTGYVTKLEEVSLGKDTMTGHWEIMGLNITEPFDTFWNGFPEEIISKIEKFSGRKVIREANKPYSGTAVIDDFGPRQMETGELIIYTSADPVLQIAAHEDVIPLDELYRICEYARSITLERPALLGRIIARPYVGKPRNFTRTANRHDYALSPFAPTVLNKLADAGVSTYAVGKINDIFNGSGITNDMGHNKSNSHGVDTLIKTMGLSAFTKGFSFTNLVDFDALYGHRRNAHGYRDCLHEFDERLPEIIAAMKVDDLLLITADHGNDPTYAGTDHTREYVPLLAYSPSFTGNGVLPVGHYADISATIADNFGVDTAMIGESFLDKLIEGHHHHHH” the protein production was “not failed”. For “MSLSYVHTEIQNDALYITLDYPEKKNGLDAELGTSLLEAIRAGNNETSIHSIILQSKHRAYFSSGPRLEDLLICASDQSDVRLREVLHVLNHCVLEIFTSPKVTVALINGYAYGGGFNMMLACDRRIALRRAKFLENFHKMGISPDLGASYFLPRIIGYEQTMNLLLEGKLFTSEEALRLGLIQEICENKQELQERVKNYLKAVSEGYVPAIAATKKLLKGKAAEELKQQLEQETEELVALFKQTEIKKRLEALVEGHHHHHH”, the protein production was “not failed”. With “MSLTADPPACTVPAAGVSSTHKLVNGGAEKIVFKIKSSNNNEYRIAPVFGFVDPSGSKDVVITRTAGAPKEDKLVVHFASAPADATDAQAAFVAVAPAGTVTIPMSATA” the protein production was “not failed”. With “MSLTARSVVLSVLLGAHPAWATASELIQLTADFGIKETTLRVALTRMVGAGDLVRSADGYRLSDRLLARQRRQDEAMRPRTRAWHGNWHMLIVTSIGTDARTRAALRTCMHHKRFGELREGVWMRPDNLDLDLESDVAARVRMLTARDEAPADLAGQLWDLSGWTEAGHRLLGDMAAATDMPGRFVVAAAMVRHLLTDPMLPAELLPADWPGAGLRAAYHDFATAMAKRRDATQLLEVTEGHHHHHH” the protein production was “not failed”. For “MSLTFPTLSPTQIIQYIHLGSFLNAHNVDYIHNNNISSILLVGIEVPSLFKDQCDILRLDIVSEEGHQLYDSIPNAIKFIIRSIQRKEGVLIISGTGVNKAPAIVIAFLMYYQRLSFINAFNKVQGLYPLIDIESGFILQLKLFEKKLEKMNSEGHHHHHH”, the protein production was “not failed”. For “MSLTNDERILSWNETPSKPRYTPPPGAIDAHCHVFGPMAQFPFSPKAKYLPRDAGPDMLFALRDHLGFARNVIVQASCHGTDNAATLDAIARAQGKARGIAVVDPAIDEAELAALHEGGMRGIRFNFLKRLVDDAPKDKFLEVAGRLPAGWHVVIYFEADILEELRPFMDAIPVPIVIDHMGRPDVRQGPDGADMKAFRRLLDSREDIWFKATCPDRLDPAGPPWDDFARSVAPLVADYADRVIWGTDWPHPNMQDAIPDDGLVVDMIPRIAPTPELQHKMLVTNPMRLYWSEEMEGHHHHHH”, the protein production was “not failed”. In the case of “MSLTNGEENEEVLFCEKAKLLIFDSDTKGYTSRGVGELKLLRKKDDKGKVRVLCRSEGMGHVLLNTSVVKSFKYQPIDADNENLIKWPIITDGKLETFIIKVKQKADGRRLVGAVADAQQAMEGHHHHHH”, the protein production is reported as “not failed”. With “MSLTPRNATVAVIGAGDYIGAEIAKKFAAEGFTVFAGRRNGEKLAPLVAEIEAAGGRIVARSLDARNEDEVTAFLNAADAHAPLEVTIFNVGANVNFPILETTDRVFRKVWEMACWAGFVSGRESARLMLAHGQGKIFFTGATASLRGGSGFAAFASAKFGLRAVAQSMARELMPKNIHVAHLIIDSGVDTAWVRERREQMFGKDALANPDLLMPPAAVAGAYWQLYQQPKSAWTFEMEIRPYGEGHHHHHH” the protein production was “not failed”. For “MSLTSVVFLNPGNSTETFWVSYSQFMQAAARDLGLDLRILYAERDPQNTLQQARELFQGRDKPDYLMLVNEQYVAPQILRLSQGSGIKLFIVNSPLTLDQRELIGQSRQNYSDWIGSMVGDDEEAGYRMLKELLHKLGPVPAGHGIELLAFSGLKVTPAAQLRERGLRRALAEHPQVHLRQLVYGEWNRERAYRQAQQLLKRYPKTQLVWSANDEMALGAMQAARELGRKPGTDLLFSGVNSSPEALQALIDGKLSVLEAGHFTLGGWALVALHDDALGLDARRLGGPDWQLSLFQALTPAQARQLLRLGDQVGTRVDFRGLSAQGKPDSYRYPFGLQLLLREGHHHHHH”, the protein production was “not failed”. For “MSLTTYDTQPSTLIRNAAAIMTGGRGTADDPSRVPGPDIRIVGDTIDAIGALAPRPGETIVDATDCVIYPAWVNTHHHLFQSLLKGEPAGLDATLTPWLAATPYRFRALFDERRFRLAARIGLIELARSGCATVADHNYVYYPGMPFDSSAILFEEAEKLGLRFVLLRGGATQTRQLEADLPTALRPETLDAYVADIERLAARYHDASPRAMRRVVMAPTTVLYSISPREMRETAAVARRLGLRMHSHLSETVGYQDSAYSMYGKSPVAFCGEHDWLGSDVWYAHLVKVDADEIALLAQTGTGVAHCPQSNGRLGSGICPVREMADAGVPVSIGVDGAASNEAADMISEVHMTWLAQRARLGMLAQPAYRGGSFEGGAGAASIAEVIHWGTAGGARVMGLDEVGKVAVGYAADIAVYRLDDPRYFGLHDPAIGPVASGGRPSVMALFSAGKRVVVDDLIEGVDIKELGGEARRVVRELLREVVVEGHHHHHH”, the protein production was “not failed”. In the case of “MSLVLVDHPRPGVALITLNRPERMNSMAFDVMVPLKEALQKVTYDNAVRVVVLTGAGRGFSSGADHKSAGTVPHVEGLTRPTYALRSMEILDEVILALRRLHQPVIAAVNGPAIGGGLCLALAADIRVASTSAYFRAAGINNGLTASELGLSYLLPRAIGSSRAFEIMLTGRDVTAEEAERIGLVSCQVPEEQLLDTCYAIAARIAAFSRPGIELTKRTLWSGLDAGSLEGHMQAEGLGQLFVRLLTANFEEAVAARAERRPPVFTDDK”, the protein production is reported as “failed”. With “MSLVSLPGLPAMISEISKRNNLPTTAVEEALREALLKGYERFRRSQLMGHQFPEEYFNNFEVELDTEEEGFRVLSTKRIVEEVENSDQQISLKEVLEVAEEAQLGDEVVLDVTPEQKDFGRMAAIQTKQVLLQKLRDQQRKIIQEEFQDLEGTVLNARALRFERQSIIVAVQSSFGQPEVEAELPKREQLPNDNYRANSTFRVYLKRVREGSQRGPQLVVSRAAAGLVVDLFSVEVPEIEEEVVRIVAVAREAKPPSPSVGPRTKIAVDTLERDVDPVGACIGARGSRIHAVVNELRGEKIDVIRWSPDPATYIAQALSPARVDQVYLIHAEERHALVIVAEDQLSLAIGKEGQNVRLAARLTGWKIDIKDPETYARDKEAIEQSILERAAASAQARAEREAAEQEAQAKLEAEMAALEAEEAEELEETPEAIAEVEEEVEEWDQDQGPELGEEEELSLEHHHHHH” the protein production was “not failed”. With “MSLVTYQTIKVRFQASVCYITFHRPEANNTINDTLIEECLQVLNQCETSTVTVVVLEGLPEVFCFGADFQEIYQEMKRGRKQASSQEPLYDLWMKLQTGPYVTISHVRGKVNAGGLGFVSATDIAIADQTASFSLSELLFGLYPACVLPFLIRRIGRQKAHYMTLMTKPISVQEASEWGLIDAFDAESDVLLRKHLLRLRRLNKKGIAHYKQFMSSLDHQVSRAKATALTANQDMFSDPQNQMGIIRYVETGQFPWEDQEGHHHHHH” the protein production was “not failed”.
